Results from US20160272683A1 (Novo Nordisk, published 2016).
Numbered stars: 1 amine (or outer) side, 2 acyl side, 3 side chain; on linkers, the order of the positions; unused ones are H or OH. * marks the point of attachment. C20 diacid = O=C(O)CCCCCCCCCCCCCCCCCCC(=O)*; C18 diacid = O=C(O)CCCCCCCCCCCCCCCCC(=O)*; γGlu = O=C(O)[C@H](CCC(=O)[*:2])N[*:1]

T1: human amylin 3(a) receptor (human calcitonin receptor co-expressed with RAMP-3) on BHK570/CRE-luc cells (human, UniProt P30988 25-474; O60896 24-148)
T1 sequence (looked up) 1: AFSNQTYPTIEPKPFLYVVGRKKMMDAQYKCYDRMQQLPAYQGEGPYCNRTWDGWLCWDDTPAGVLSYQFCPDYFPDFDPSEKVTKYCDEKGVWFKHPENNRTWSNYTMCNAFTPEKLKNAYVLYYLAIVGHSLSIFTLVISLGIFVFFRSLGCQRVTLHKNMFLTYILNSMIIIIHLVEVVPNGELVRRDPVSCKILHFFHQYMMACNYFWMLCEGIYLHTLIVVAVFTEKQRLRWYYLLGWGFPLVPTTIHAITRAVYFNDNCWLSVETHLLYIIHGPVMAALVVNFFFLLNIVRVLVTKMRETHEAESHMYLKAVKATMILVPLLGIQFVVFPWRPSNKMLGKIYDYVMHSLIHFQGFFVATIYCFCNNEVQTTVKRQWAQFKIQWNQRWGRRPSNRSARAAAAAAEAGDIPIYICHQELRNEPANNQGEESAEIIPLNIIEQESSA
T1 sequence (looked up) 2: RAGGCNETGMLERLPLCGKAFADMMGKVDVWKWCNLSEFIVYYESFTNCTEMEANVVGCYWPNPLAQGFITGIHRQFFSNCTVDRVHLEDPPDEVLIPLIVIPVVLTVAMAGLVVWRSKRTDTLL

T2: human calcitonin receptor on BHK570/CRE-luc cells (human, UniProt P30988 25-474)
T2 sequence (looked up): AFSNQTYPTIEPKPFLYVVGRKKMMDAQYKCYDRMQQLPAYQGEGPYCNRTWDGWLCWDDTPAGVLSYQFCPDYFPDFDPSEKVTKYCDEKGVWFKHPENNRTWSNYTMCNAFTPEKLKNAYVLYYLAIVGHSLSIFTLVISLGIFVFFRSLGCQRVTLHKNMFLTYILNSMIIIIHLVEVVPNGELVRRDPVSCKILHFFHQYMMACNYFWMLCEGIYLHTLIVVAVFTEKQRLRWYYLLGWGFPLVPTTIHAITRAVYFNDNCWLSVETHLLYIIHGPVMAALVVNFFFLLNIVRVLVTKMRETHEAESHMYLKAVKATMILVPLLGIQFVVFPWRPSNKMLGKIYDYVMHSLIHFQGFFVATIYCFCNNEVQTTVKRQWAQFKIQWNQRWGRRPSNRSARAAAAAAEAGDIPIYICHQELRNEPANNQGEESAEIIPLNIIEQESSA


Columns and labels:
[1] = biological target: T1, human amylin 3(a) receptor (human …); test: cell-based or functional assay
[2] = biological target: T2, human calcitonin receptor on …; test: cell-based or functional assay

Binder | hAmylin-R funct. EC50 (pM), tested with HSA [1] [pM] | hCTR funct. EC50 (pM), tested with HSA [2] [pM]
{C20 diacid-γGlu}-EASGLSTAALGRLSQELHELQTYPRTETGSGTY-NH2 (SMILES CC(C)C[C@H](NC(=O)CNC(=O)[C@H](CO)NC(=O)[C@H](C)NC(=O)[C@H](CCC(=O)O)NC(=O)CC[C@H](NC(=O)CCCCCCCCCCCCCCCCCCC(=O)O)C(=O)O)C(=O)N[C@@H](CO)C(=O)N[C@H](C(=O)N[C@@H](C)C(=O)N[C@@H](C)C(=O)N[C@@H](CC(C)C)C(=O)NCC(=O)N[C@@H](CCCNC(=N)N)C(=O)N[C@@H](CC(C)C)C(=O)N[C@@H](CO)C(=O)N[C@@H](CCC(N)=O)C(=O)N[C@@H](CCC(=O)O)C(=O)N[C@@H](CC(C)C)C(=O)N[C@@H](Cc1c[nH]cn1)C(=O)N[C@@H](CCC(=O)O)C(=O)N[C@@H](CC(C)C)C(=O)N[C@@H](CCC(N)=O)C(=O)N[C@H](C(=O)N[C@@H](Cc1ccc(O)cc1)C(=O)N1CCC[C@H]1C(=O)N[C@@H](CCCNC(=N)N)C(=O)N[C@H](C(=O)N[C@@H](CCC(=O)O)C(=O)N[C@H](C(=O)NCC(=O)N[C@@H](CO)C(=O)NCC(=O)N[C@H](C(=O)N[C@@H](Cc1ccc(O)cc1)C(N)=O)[C@@H](C)O)[C@@H](C)O)[C@@H](C)O)[C@@H](C)O)[C@@H](C)O) [[N-terminal(C20 diacid-gGlu), 4G, 15Q, 21Q, 23Y, 30S, 31G, 32T, 33Y]mimylin] | 128 | 92
{C20 diacid-γGlu}-ASGLSTAVLGRLSAELHELATYPRTETGSGTP-NH2 (SMILES CC(C)C[C@H](NC(=O)CNC(=O)[C@H](CO)NC(=O)[C@H](C)NC(=O)CC[C@H](NC(=O)CCCCCCCCCCCCCCCCCCC(=O)O)C(=O)O)C(=O)N[C@@H](CO)C(=O)N[C@H](C(=O)N[C@@H](C)C(=O)N[C@H](C(=O)N[C@@H](CC(C)C)C(=O)NCC(=O)N[C@@H](CCCNC(=N)N)C(=O)N[C@@H](CC(C)C)C(=O)N[C@@H](CO)C(=O)N[C@@H](C)C(=O)N[C@@H](CCC(=O)O)C(=O)N[C@@H](CC(C)C)C(=O)N[C@@H](Cc1c[nH]cn1)C(=O)N[C@@H](CCC(=O)O)C(=O)N[C@@H](CC(C)C)C(=O)N[C@@H](C)C(=O)N[C@H](C(=O)N[C@@H](Cc1ccc(O)cc1)C(=O)N1CCC[C@H]1C(=O)N[C@@H](CCCNC(=N)N)C(=O)N[C@H](C(=O)N[C@@H](CCC(=O)O)C(=O)N[C@H](C(=O)NCC(=O)N[C@@H](CO)C(=O)NCC(=O)N[C@H](C(=O)N1CCC[C@H]1C(N)=O)[C@@H](C)O)[C@@H](C)O)[C@@H](C)O)[C@@H](C)O)C(C)C)[C@@H](C)O) [[N-terminal(C20 diacid-gGlu), des1, 4G, 9V, 23Y, 30S, 31G, 32T]mimylin] | 66 | 35
{C18 diacid-γGlu}-ASEVSTAVVGRLSAELHEVATLPRTETGSGSP-NH2 (SMILES CC(C)C[C@H](NC(=O)[C@H](CCCNC(=N)N)NC(=O)CNC(=O)[C@@H](NC(=O)[C@@H](NC(=O)[C@H](C)NC(=O)[C@@H](NC(=O)[C@H](CO)NC(=O)[C@@H](NC(=O)[C@H](CCC(=O)O)NC(=O)[C@H](CO)NC(=O)[C@H](C)NC(=O)CC[C@H](NC(=O)CCCCCCCCCCCCCCCCC(=O)O)C(=O)O)C(C)C)[C@@H](C)O)C(C)C)C(C)C)C(=O)N[C@@H](CO)C(=O)N[C@@H](C)C(=O)N[C@@H](CCC(=O)O)C(=O)N[C@@H](CC(C)C)C(=O)N[C@@H](Cc1c[nH]cn1)C(=O)N[C@@H](CCC(=O)O)C(=O)N[C@H](C(=O)N[C@@H](C)C(=O)N[C@H](C(=O)N[C@@H](CC(C)C)C(=O)N1CCC[C@H]1C(=O)N[C@@H](CCCNC(=N)N)C(=O)N[C@H](C(=O)N[C@@H](CCC(=O)O)C(=O)N[C@H](C(=O)NCC(=O)N[C@@H](CO)C(=O)NCC(=O)N[C@@H](CO)C(=O)N1CCC[C@H]1C(N)=O)[C@@H](C)O)[C@@H](C)O)[C@@H](C)O)C(C)C) [[N-terminal(C18 diacid-gGlu), des1, 5V, 9V, 10V, 20V, 30S, 31G]mimylin] | 106 | 28

Continued, values first:

hAmylin-R funct. EC50 (pM), tested with HSA [1] [pM] | hCTR funct. EC50 (pM), tested with HSA [2] [pM] | Binder
92 | 40 | {C20 diacid-γGlu}-ASELSTATLGRLSAELHELSTYPRTETGSGSY-NH2 (SMILES CC(C)C[C@H](NC(=O)[C@H](CCCNC(=N)N)NC(=O)CNC(=O)[C@H](CC(C)C)NC(=O)[C@@H](NC(=O)[C@H](C)NC(=O)[C@@H](NC(=O)[C@H](CO)NC(=O)[C@H](CC(C)C)NC(=O)[C@H](CCC(=O)O)NC(=O)[C@H](CO)NC(=O)[C@H](C)NC(=O)CC[C@H](NC(=O)CCCCCCCCCCCCCCCCCCC(=O)O)C(=O)O)[C@@H](C)O)[C@@H](C)O)C(=O)N[C@@H](CO)C(=O)N[C@@H](C)C(=O)N[C@@H](CCC(=O)O)C(=O)N[C@@H](CC(C)C)C(=O)N[C@@H](Cc1c[nH]cn1)C(=O)N[C@@H](CCC(=O)O)C(=O)N[C@@H](CC(C)C)C(=O)N[C@@H](CO)C(=O)N[C@H](C(=O)N[C@@H](Cc1ccc(O)cc1)C(=O)N1CCC[C@H]1C(=O)N[C@@H](CCCNC(=N)N)C(=O)N[C@H](C(=O)N[C@@H](CCC(=O)O)C(=O)N[C@H](C(=O)NCC(=O)N[C@@H](CO)C(=O)NCC(=O)N[C@@H](CO)C(=O)N[C@@H](Cc1ccc(O)cc1)C(N)=O)[C@@H](C)O)[C@@H](C)O)[C@@H](C)O) [[N-terminal(C20 diacid-gGlu), des1, 9T, 21S, 23Y, 30S, 31G, 33Y]mimylin]
64 | 48 | {C20 diacid-γGlu}-ASELSTAALGRLSAELHELSTYPRTETGSGSY-NH2 (SMILES CC(C)C[C@H](NC(=O)[C@H](C)NC(=O)[C@H](C)NC(=O)[C@@H](NC(=O)[C@H](CO)NC(=O)[C@H](CC(C)C)NC(=O)[C@H](CCC(=O)O)NC(=O)[C@H](CO)NC(=O)[C@H](C)NC(=O)CC[C@H](NC(=O)CCCCCCCCCCCCCCCCCCC(=O)O)C(=O)O)[C@@H](C)O)C(=O)NCC(=O)N[C@@H](CCCNC(=N)N)C(=O)N[C@@H](CC(C)C)C(=O)N[C@@H](CO)C(=O)N[C@@H](C)C(=O)N[C@@H](CCC(=O)O)C(=O)N[C@@H](CC(C)C)C(=O)N[C@@H](Cc1c[nH]cn1)C(=O)N[C@@H](CCC(=O)O)C(=O)N[C@@H](CC(C)C)C(=O)N[C@@H](CO)C(=O)N[C@H](C(=O)N[C@@H](Cc1ccc(O)cc1)C(=O)N1CCC[C@H]1C(=O)N[C@@H](CCCNC(=N)N)C(=O)N[C@H](C(=O)N[C@@H](CCC(=O)O)C(=O)N[C@H](C(=O)NCC(=O)N[C@@H](CO)C(=O)NCC(=O)N[C@@H](CO)C(=O)N[C@@H](Cc1ccc(O)cc1)C(N)=O)[C@@H](C)O)[C@@H](C)O)[C@@H](C)O) [[N-terminal(C20 diacid-gGlu), des1, 21S, 23Y, 30S, 31G, 33Y]mimylin]
143 | 108 | {C20 diacid-γGlu}-ASELSTASLGRLSAELHELSTYPRTETGSGSY-NH2 (SMILES CC(C)C[C@H](NC(=O)[C@H](CO)NC(=O)[C@H](C)NC(=O)[C@@H](NC(=O)[C@H](CO)NC(=O)[C@H](CC(C)C)NC(=O)[C@H](CCC(=O)O)NC(=O)[C@H](CO)NC(=O)[C@H](C)NC(=O)CC[C@H](NC(=O)CCCCCCCCCCCCCCCCCCC(=O)O)C(=O)O)[C@@H](C)O)C(=O)NCC(=O)N[C@@H](CCCNC(=N)N)C(=O)N[C@@H](CC(C)C)C(=O)N[C@@H](CO)C(=O)N[C@@H](C)C(=O)N[C@@H](CCC(=O)O)C(=O)N[C@@H](CC(C)C)C(=O)N[C@@H](Cc1c[nH]cn1)C(=O)N[C@@H](CCC(=O)O)C(=O)N[C@@H](CC(C)C)C(=O)N[C@@H](CO)C(=O)N[C@H](C(=O)N[C@@H](Cc1ccc(O)cc1)C(=O)N1CCC[C@H]1C(=O)N[C@@H](CCCNC(=N)N)C(=O)N[C@H](C(=O)N[C@@H](CCC(=O)O)C(=O)N[C@H](C(=O)NCC(=O)N[C@@H](CO)C(=O)NCC(=O)N[C@@H](CO)C(=O)N[C@@H](Cc1ccc(O)cc1)C(N)=O)[C@@H](C)O)[C@@H](C)O)[C@@H](C)O) [[N-terminal(C20 diacid-gGlu), des1, 9S, 21S, 23Y, 30S, 31G, 33Y]mimylin]
93 | 73 | {C20 diacid-γGlu}-ASELSTAALGKLSAELHELATYPKTETGSGSY-NH2 (SMILES CC(C)C[C@H](NC(=O)[C@H](C)NC(=O)[C@H](C)NC(=O)[C@@H](NC(=O)[C@H](CO)NC(=O)[C@H](CC(C)C)NC(=O)[C@H](CCC(=O)O)NC(=O)[C@H](CO)NC(=O)[C@H](C)NC(=O)CC[C@H](NC(=O)CCCCCCCCCCCCCCCCCCC(=O)O)C(=O)O)[C@@H](C)O)C(=O)NCC(=O)N[C@@H](CCCCN)C(=O)N[C@@H](CC(C)C)C(=O)N[C@@H](CO)C(=O)N[C@@H](C)C(=O)N[C@@H](CCC(=O)O)C(=O)N[C@@H](CC(C)C)C(=O)N[C@@H](Cc1c[nH]cn1)C(=O)N[C@@H](CCC(=O)O)C(=O)N[C@@H](CC(C)C)C(=O)N[C@@H](C)C(=O)N[C@H](C(=O)N[C@@H](Cc1ccc(O)cc1)C(=O)N1CCC[C@H]1C(=O)N[C@@H](CCCCN)C(=O)N[C@H](C(=O)N[C@@H](CCC(=O)O)C(=O)N[C@H](C(=O)NCC(=O)N[C@@H](CO)C(=O)NCC(=O)N[C@@H](CO)C(=O)N[C@@H](Cc1ccc(O)cc1)C(N)=O)[C@@H](C)O)[C@@H](C)O)[C@@H](C)O) [[N-terminal(C20 diacid-gGlu), des1, 12K, 23Y, 25K, 30S, 31G, 33Y]mimylin]
